Laboratory results taken from the DeepSol protein solubility set.

experiment: soluble on expression in E. coli; label from the status in PepcDB or PDB records

Row | Sequence | soluble on expression in E. coli
1 | MSLTFIRKVETWITNSKQTEDGWSQIKPFIFLKLTNSDGFEGWGEAFSLPAREKGIVEIIHNLMSSLSYVKDITPDRFYTESNLIADGHRGIDFSAATSAIEMSLWDIEGKKEKKPLYKILSKDYREKVPVYATIWSEDFKNDENLSSRCIEILSDGYGGIKIYPLQNRTVEQAAKCVSKIRDVLGYKIPLMLDLACPKDTNISLKLASLVEEFRPYWFEEPVDGEATRALKDIREKTSLRIVSGEKQCGLNHFIETLALDAVDIFNPDISGVGGIIDMIKIIKLSHEKKVTVSPHCWNSMSIAASAMVHVCMSFTNTEMAEFFPEYIPYSLKFSNQNYEIKDGFVKIEDNEGLGINIDTKLLMEDTSSYRETELTEGHHHHHH | soluble
2 | MMNLRSIAMNKPDLVIFFDGQCPLCCNEMRALKTADHQARILLVDVHDTDTMSCYPSIDKQRALSILHGIDQQGQLLYGLDVTVLAWRLVNRHRWLFITRMPILKGISDRMYLLFAKHRMRLSRWFGQTQCQEGVCQKKLEHHHHHH | soluble
3 | EAIKWDKAPCRFCGTGCGVLVGTQQGRVVACQGDPDAPVNRGLNCIKGYFLPKIMYGKDRLTQPLLRMKNGKYDKEGEFTPITWDQAFDVMEEKFKTALKEKGPESIGMFGSGQWTIWEGYAASKLFKAGFRSNNIDPNARHCMASAVVGFMRTFGMDEPMGCYDDIEQADAFVLWGANMAEMHPILWSRITNRRLSNQNVTVAVLSTYQHRSFELADNGIIFTPQSDLVILNYIANYIIQNNAINQDFFSKHVNLRKGATDIGYGLRPTHPLEKAAKNPGSDASEPMSFEDYKAFVAEYTLEKTAEMTGVPKDQLEQLAQLYADPNKKVISYWTMGFNQHTRGVWANNLVYNLHLLTGKISQPGCGPFSLTGQPSACGTAREVGTFAHRLPADMVVTNEKHRDICEKKWNIPSGTIPAKIGLHAVAQDRALKDGKLNVYWTMCTNNMQAGPNINEERMPGWRDPRNFIIVSDPYPTVSALAADLILPTAMWVEKEGAYGNAERRTQFWRQQVQAPGEAKSDLWQLVQFSRRFKTEEVWPEDLLAKKPELRGKTLYEVLYATPEVSKFPVSELAEDQLNDESRELGFYLQKGLFEEYAWFGRGHGHDLAPFDDYHKARGLRWPVVNGKETQWRYSEGNDPYVKAGEGYKFYGKPDGKAVIFALPFEPAAEAPDEEYDLWLSTGRVLEHWHTGSMTRRVPELHRAFPEAVLFIHPLDAKARDLRRGDKVKVVSRRGEVISIVETRGRNRPPQGLVYMPFFDAAQLVNKLTLDATDPLSKETDFKKCAVKLEKV | soluble
4 | EQMQSEFFYTDRKKIKWSLPSQPKVDIVELELLVARFIGEEKATKCFEKFHSMNQTKDNKKFNEAILFHAENTLARVLGSASAKLVTSLAISSRGMAFDQVAKLVEDNSTQQLEFSRTVLQSAIENVSEGISVIDSELKLVAWNKQYLDIFSYPEAFIYIGCPISQLIHFNLSQQGYFAKDIDLRVK | not soluble
5 | MGSDKIHHHHHHMKNLLVVLLSLVSVLSFSVSLNDVLQTALASSTDYQIAQISLESATMDYEKAKLEATNKRSELSAELSYYNNLQSYRNSLKSAYQDVLGRIFNLLTADLSYEIAQLNFENAQEDYKTSQELFKKNLISENDLKDSELTLEEASNNLLSAQKDLEEAQKDYEEIFSVEVSEIELPLIDYQNLVGEDEYLDNLSSVKIAELNMKIAEYDLNNLSASASKYEQKKAELNYKKSKMNYDEALKEAKDSYKSTLDSLEIAFLNLKVLKEKIELNENILKDYQERYEKGLISKKELNTQKINLLNIKKNYLNSLRSYYISIVNLLIDAGKEVSF | not soluble
6 | MRGSHHHHHHGSAPIKVGDAIPAVEVFEGEPGNKVNLAELFKGKKGVLFGVPGAFTPGCSKTHLPGFVEQAEALKAKGVQVVASLSVNDAFVTGEWGRAHKAEGKVRLLADPTGAFGKETDLLLDDSLVSIFGNRRLKRFSMVVQDGIVKALNVEPDGTGLTCSLAPNIISQL | soluble
7 | MVFYLIGLGLGDVEDITVKGLNIVKNCARVHLEAYTSILCYGLDKTNLEKFYGREIIEADRTVVEQESDAILNGADKEDVALLVVGDPFGATTHADLVLRAKQQNIPVKVIHNASIMNAVGCCGLQLYNFGETVSIVMWTDEWQPESYYDKIALNRKRGMHTLCLLDIKTKEQTVENMMRGRKIFEPARYQKCSEAARQLLTIYERRKAKGEECAYDENTMVVGLARVGWDNQKIVYASMKDMSEMEMGEPLHSLIIPGETHPLEVDMLETFRP | not soluble
8 | MLKTLAVANYRSINKLVIPLGRLNLVTGANGSGKSNLYRALRLLAETAQGGVVNALAKEGGLESTYWAGPEQISRRMSQGEVPIQGGPRKAARRLQLGFAGEDFGYAISLGLPDSSGHFMLPGHSSPIASRFTLDPWIKRESIWGGPLYRSASALVDRQGPMIRARAGRQWEVLAQHTSSGDSLFDRVGNLSSSPEVLHLREQIRGWRFYDHLRTDSQAPARRPQLGTRTPVLHHDGRDLAAALQTIIEVGDQQALHETISDAFPESRLEIDAVPGGLFGVQFYQEGLLRPLSAAELSDGTLRYLLLVAALLTPRPPTLMVLNEPETSLHPDLLPALARLIIRASQQCQVWVVSHARRLIAALQQDPECNCIVLEKQLGQTGIVGQRMLDEPAWNWPDLEHHHHHH | not soluble
9 | MKLSPVSAAVLSVLAAGFAHAETEPSHYEEVVVTANRIEQPLSEVAGSVAVLEGETLEKQGKTELYDALNQEPGVSVTGGAGRPQNITIRGMTGNRIAIVRDGIQSADGYGAADINDKYGRNTFSLSNVKQIQVVKGASSTLYGSGAIGGVVIIESKAPEDYLYHRDYYVDAALTYSGISNRYQGNHALAMRHGDGEALLTIDYWQGEETRNFNQDLYNREVDGYNLGFSHHYWLNDALRLKTHLEYFDDYAKRREGTSSIQKDDKWDLVSFYEYQRSQTRLASVGADYTANLSWMDTLEGKFYWRSTENITQTNRLMANDRSGAGILSYRRELRDEGFNDEALGATLNAQKEWQQGEWLHQFAYGMSVDGHDYQRPKSIRRMESSGDDLQADEPFAPAREYRFGVYGQDNLLLGDWTLAAGLRFDAQKLSPKNTDRIHGYKVVTMGSSEWSPSASISYQWHPEWNTYLSYNHGFRAPSYDKAYGASDHSFVPLTPFIIKPNNKLRAETSDSFELGSKYDNGQTQFYVAVFYSIFDNFIDVKQVGYDNATGSVIQQYQNIAGVKTYGAEMSVMHRLDDRWSVENKLGYVDGKDGENQYVRTLTPLEGSVQLNYQRERWDAYSRLNWASAMSRVPTCTTEQGKETECATTTGWVSWDIGLNYQWNAQLSASFNVVNLLDREYTRYQDVAGVTPSDTLYSTEPGRYFTVHAKYVF | not soluble
10 | MAHNYLLEIGLEEIPAHVVTPSIKQLVQKVTAFLKENRLTYDSIDHFSTPRRLAIRINGLGDQQPDIEEDAKGPARKIAQDADGNWTKAAIGFTRGQGLTVDDITFKTIKGTDYVYVHKLIKGKMTKEILTGLKEVVESINFPTMMKWANFDFKYVRPIRWLVSILDEEVLPFSILDVTAGRRTEGHRFLGEAVELANAEEYEAKLHDQFVIVDADERKQLISNQIKAIAESNRWNVTPNPGLLEEVNNLVEWPTAFNGGFDEKYLAIPEEVLITSMRDHQRFFFVRDQAGKLLPNFISVRNGNEEFIENVVRGNEKVLTARLEDAAFFYEEDQKHDINYYVDRLKKVSFHDKIGSMYEKLQRVNSIAKVIGNTLNLNQTELDDIDRATMIYKFDLVTGMVGEFSELQGVMGEKYAQLNGENQAVAQAIREHYMPNSAEGDLPESVTGAVVALADKFDNIFSFFSAGMIPSGSNDPYALRRHAYGIVRILNSRDWQLDLNQFKSQVKTELAENGTAFGVDVDQNFDQVLNFFNDRIKQLLDHQKISHDIVETVLTGNNHD | not soluble
11 | MSQNSLPSEVSNATIDKELYYHGLLPSEDVRQLLSNNGDFLLRSSEPEPGSPRTHILSVMFNNRLDDINSIKHFVVNFVDGKYFINDKMSFPSIQKMLGTYQRNNTEIKEGCMLVNPIRRQFWELEHDQITIHKKLGEGAFGEVSSGVMKFKKGMKTVQVAIKQVKLDKTGKAKIKDFLAEARTMRKLGHQNIIKFYGVGVLQEPLYLVMELAVNGALDSFLKKNEDLSVDKKTEMILQAAWGLEYIHGKPMLHRDIAARNCLYTDGKVKISDFGLTRNGTVYQIKPNTKSPIRWLAIETIKTMICSEKTDVWAYGVLCWEIFNNAAEPYPGMKPADVATQVANGYRMPPYPHAQAEIQTMMARCNAENPNDRPSMAEIAEILQRVTETPRPNFTAIAKKEAEELLLMNSVTTKTTARRKKSNVKLPKGMSKN | not soluble
12 | MTDMTYTIALMGNPNTGKSTLFNVLTGLRQHTGNWPGKTVTHAEGECRHRGTLYRIVDLPGTYSLYSNSADEEVARDFLLFQRPDVTIVVVDATALERNLNLALQVLEMTDRVIIAINLMDEAKKKGIHINTKKLAAKLGVPVVPISARNREGIDALLDTVDAMAHGRINTNPLSIRYSPEIERGIAKLLPLVKDVMGDTYPARWIALRLLDGDTSLLQALKQPPQPLIKEGNAYACCGSVKSV | not soluble
13 | MKNELICYKQMPVWTKDNLPQMFQEKHNTKVGTWGKLTVLKGKLKFYELTENGDVIAEHIFTPESHIPFVEPQAWHRVEALSDDLECTLGFYCKKEDYFSKKYNTTAIHGDVVDAAKIISPCKVLDLGCGQGRNSLYLSLLGYDVTSWDHNENSIAFLNETKEKENLNISTALYDINAANIQENYDFIVSTVVFMFLNRERVPSIIKNMKEHTNVGGYNLIVAAMSTDDVPCPLPFSFTFAENELKEYYKDWEFLEYNENMGELHKTDENGNRIKMKFATMLARKK | soluble
14 | MTTRRLALFDLDHTLLPLDSDYQWADFLARTGRAGDPAEARRRNDDLMERYNRGELTAEQAAEFMLGLLAAHSPVELAAWHEEFMRDVIRPSLTAQAVDVVRGHLAAGDLCALVTATNSFVTAPIARAFGVQHLIATDPEYRDGRYTGRIEGTPSFREGKVVRVNQWLAGMGLALGDFAESYFYSDSVNDVPLLEAVTRPIAANPSPGLREIAQARGWQVIDLFDHLEDAKS | not soluble
15 | MEMISNNLNWFVGVVEDRMDPLKLGRVRVRVVGLHPPQRAQGDVMGIPTEKLPWMSVIQPITSAAMSGIGGSVTGPVEGTRVYGHFLDKWKTNGIVLGTYGGIVREKPNRLEGFSDPTGQYPRRLGNDTNVLNQGGEVGYDSSSNVIQDSNLDTAINPDDRPLSEIPTDDNPNMSMAEMLRRDEGLRLKVYWDTEGYPTIGIGHLIMKQPVRDMAQINKVLSKQVGREITGNPGSITMEEATTLFERDLADMQRDIKSHSKVGPVWQAVNRSRQMALENMAFQMGVGGVAKFNTMLTAMLAGDWEKAYKAGRDSLWYQQTKGRASRVTMIILTGNLESYGVEVKTPARSLSAMAATVAKSSDPADPPIPNDSRILFKEPVSSYKGEYPYVHTMETESGHIQEFDDTPGQERYRLVHPTGTYEEVSPSGRRTRKTVDNLYDITNADGNFLVAGDKKTNVGGSEIYYNMDNRLHQIDGSNTIFVRGDETKTVEGNGTILVKGNVTIIVEGNADITVKGDATTLVEGNQTNTVNGNLSWKVAGTVDWDVGGDWTEKMASMSSISSGQYTIDGSRIDIGSVDHHHHHH | soluble
16 | GPGSMVRRNNKSTESTIVFTRGAGDNSLWDDADLIRLWNAQLEEDQCEKAEDEAPVPSTVSEDGSLITTEDDEVAESEQKSSLRSFQSGQREAGVASAIVTAAPINASVAPVVLHQSMFDRLPADIRQLLVAYFNAGYEAGYFVGKRDGSSKVGGKRARGE | not soluble
